The values below come from patent US20050037947A1, “INHIBITION OF DRUG BINDING TO SERUM ALBUMIN” (priority 2003, published 2005).

In this assay the target is T1, human serum albumin (Homo sapiens, UniProt P02768).
T1 construct: purchased Aventis, Bridgewater, N.J. Albuminar
The assay can be described thus: Serum albumin binding by surface plasmon resonance (BIACORE 3000). To be noted: SPR, immobilized serum albumin, 25° C., Req divided by molecular weight; for reduction of human serum albumin binding of the Fc chimeric protein compared to the unmodified molecule: unmodified molecule bound this many times as much. As for the experimental part:
Analysis of macromolecular interactions was performed using surface plasmon resonance as previously described (Frostell-Karlsson et al. 2000, J. Med. Chem. 43:1986). A BIACORE 3000 instrument (Biacore AB, Piscataway, N.J.) was used and all binding interactions were performed at 25° C. A carboxymethyl-modified dextran (CM5) sensor chip (Biacore AB, Piscataway, N.J.) was used for the analysis. Serum albumin (Albuminar, Aventis, Bridgewater, N.J.) was diluted to 100 μg/mL in 10 mM sodium acetate (pH 4.5) and immobilized to one flowcell of the sensor chip, using amine coupling as described (Frostell-Karlsson et al. 2000, J. Med. Chem. 43:1986). Final immobilization level was approximately 8500 Resonance Units (RU). A “mock-immobilized” surface using a separate flowcell was created using the same procedure in the absence of serum albumin and served as a reference for the binding studies.
Proteins or peptides (analyte) were diluted in HBS-N buffer (10 mM HEPES, pH 7.4; 150 mM NaCl) and injected over the serum albumin and reference surfaces for 3 minutes at a rate of 20 μL/min. After a 35 second dissociation phase, the surface was regenerated by a 30 second pulse of 10 mM glycine (pH 2.0) at a flow rate of 60 μL/min.
The sensorgrams (RU versus time) generated for the mock-coated flowcell were automatically subtracted from the serum albumin-coated sensorgrams. Response at equilibrium (Req) was measured 30 seconds before the end of the injection phase and divided by the molecular weight of the analyte, total response as is in part, a function of molecular weight. (Frostell-Karlsson et al. 2000, J. Med. Chem. 43:1986). Samples tested included T20 linked to Fc (i.e. T20-Fc produced in CHO cells and Fc-T20 produced in E. coli), a VLA4 antagonist linked to Fc, a GnRH peptide linked to Fc, PspA, a bacterial peptide fragment of S. pneumonia surface protein A, peptide YY a peptide involved in regulation of nutrient uptake and an Fc fragment of an immunoglobulin beginning with Cys 226 served as negative controls.

As to “Fc-T20: T20 linked to Fc, produced in E. coli”, the “reduction of human serum albumin binding of the Fc chimeric protein compared to the unmodified molecule” value was “more than three”.
For the substance “T20: HIV fusion inhibitor, a small peptide, fragment of gp41 (SEQ ID NO: 1) [reference compound]”, the “human serum albumin binding of the unmodified molecule compared to the same molecule linked to Fc” value (ratio unmodified molecule / Fc chimeric protein) is recorded as “more than three”.
With “T20-Fc: T20 linked to Fc, produced in CHO cells”, the “reduction of human serum albumin binding of the Fc chimeric protein compared to the unmodified molecule” value is recorded as “more than three”.
